Data as given in the supplement of paper PMC9170038.

test system: K4 kissing-loop RNA reporter; assay: apparent KD of K4 kissing-loop reporter; higher = weaker reporter binding; settings: Eterna round: R107; input ligand: theophylline 20 uM
Protocol: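 RNA-MaP round R107: designed RNA switches with theophylline, tryptophan, arginine or FMN aptamers are transcribed on-chip within common flanks. They are titrated with a labelled K4 kissing-loop RNA reporter in RNA-MaP buffer (100 mM Tris pH 7.5, 80 mM KCl, 4 mM MgCl2), without ligand or with the indicated ligand. Median apparent KD per design.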
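Note: bound reporter read as fluorescence of individual clusters on recovered sequencing chips by microscopy, with normalized cluster intensities fitted with a binding model.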

Sequence	apparent KD of K4 kissing-loop reporter
ACGUAGUUCUAGGAUACCAGCCAAGGAGGGUAGGACAAAAGUCCUGUAGCCAGUGAUGUUGGCCCUUGGCAGCCUAGAACUACGA [Omei KL Theo B Exc B v3]	0.139 µM
AGGUACUACGGAAGGAGCGCACCAGUGAUGUUGGUGUGUGACCGUGACAUGGCAGUCAAGGUGCAGGUAGGUCGCCGUGGCCUUU [Anatartibe]	0.122 µM
UGACUACAAAAGGAAUAAUCCUAGUGAUGUUAGGAUAUGCUGAUAAGCAGAAGGAACGGAGAUCGAAAGAUCUCAAAUGUAGUCU [whbob_Ex_FMNA__2th191]	0.112 µM
UCGGCAAAGUCGGCCGCCACUCCGGGCCCUAUAAAUGGGCGCAGUGAUGUUGCGGCUAGGCCUCUGAGGACCGGGACUUUGUAAA [Atordied]	0.0617 µM
UUGAGCCUGACGAAAGUCAGGCUCUGCGAGCGAGGACCGGUACGGCCGCCACUCGGUGCAGUGAUGUUGCAUGGCCGCAAGGCCG [#2 Exclusion - Tryptophan A Attempt #14 (HarryS)]	0.311 µM
ACUAUCGAAAGAUAGUUCCCAGAGCUAGUAGAGGAUAUCUGGAAACAGAGAAGGCUACAAGAGUGAUGUUCUUCUAGCUUUGGGA	0.337 µM
CGUUUAUAGCAGGAUACCAGUACGGAUAAAGUACGUUAAUAGUAGAGUGAUGUUCUAAAGUACCCUUGGCAGCUUAGAGUGAGUG [ExTheophylB.O]	0.144 µM
GCAGUGAUGUUGCGGAUGUACAGUGGCGUGCGAGGACCGGUACGGCCGCCACUCGUACAGAGCCAGCUAAUACAUCGAUUGGUGA [whbob_SS_Tryp_A_m7]	0.157 µM
AGUGAUGUUGUGUUAUGCAAGGGAAGUGAUCGAGGACCGGUACGGCCGCCACUCGAGUGAUGAGUGAGUGAUGUUUGUUUAGGGA [ffgmullin]	0.883 µM
GGAAAGCCAGUGAUGUUGGCAUAAACUGAAGGAGCGCGUGAAAACGCAGGUAGGUCGCAGAACCUUGCCAACUAUAUUAUUUACC [Ex Arginine A K4 21]	0.221 µM
GCAGUGAUGUUGCUGAUGUACAGUGGGAUACGAGGACCGGUACGGCCGCCACUCGUACAGAACUUAUUAAUACAUCGAUAAGUGA [XIV]	0.643 µM

same assay, conditions: Eterna round: R107; input ligand: tryptophan 2.4 mM

Sequence	apparent KD of K4 kissing-loop reporter
UGUGUUGUUUUGAUGUUUGUUGUAAAAUGGCAGGAUAUCGUAGAGGCGAGAAGGGCUUUUAUGCGUUAUGAGUGAUGUUUGUAGG [zvvczmullin]	0.263 µM
UGACUGGACUGAAGGAGCGCUAAACUCCUAGUGAUGUUAGGAUAACGAGACAAAGUCUCGAGGCAGGUAGGUCGCAGUCUAGUCU	0.128 µM
UCCUGCAAUCGACCACGAAAGUGGAUGGAUACCAGAGUCGAAAGACUCCCUUGGCAGCCAGUGAUGUUGGAAGCAGGUAAAUAAA [#SwitchBubble 17 #K4Late]	0.406 µM
UGUCAUUGGUCUGAUACCAGUUGAUAAACUGGAGUGAUGUUCCAAGAACGAGAAACUCGCAACCCUUGGCAGCAGACCGAUGACU [TheoBS 17 #SwitchBubble 13 #StaticStem]	0.132 µM
AUGCGUGAUGCUCAAAGAGUAUCACCCGAUACCAGUAUGGAAACAUACCCUUGGCAGCGGGUAACUGCCCAGUGAUGUUGGACGC [Theophylline A K4 10]	0.234 µM
AAAUAUUCGAGUGAUGUUCGAAUAAUAUCAGAGGAUAUGCAUAAAAGCAGAAGGCUGUAUUACUUUUUGUUACGAAAUUUUAUAA [JR_SSFMNA_Sub020]	0.115 µM
GGACAAGCAUUAGGAUAUAUAGAGCGAAACGCAAUUGAGUGAUGUUCAAAAGCAUAGGGCGAGGAAAUAGAAGGAAUGCACGGGC [Default title]	0.152 µM
UGAACUGUCUGCGAUACCAGCUAAGGAGUGAUGUUCCGGCUCGACGAAACGUCGAGCCAUAGCCCUUGGCAGCGCAGACAGUUCA [#28 K4 Theophylline B Same State]	0.272 µM
UCGGAGGGAGCGGCCGCCACUGUAUUACCUCGACGAACGCCGGUUUUCAUGAAGUGAUGUUUCGCCAGGACCGGGCUAAUCUGAG [theeternabot_exclusion_KL_Trp_B_46]	0.206 µM
AGGUGCUACGGAAGGAGCGCACCAGUGAUGUUGGUGUGUGACCGUGACAUGGCAGUCAAGGUGCAGGUAGGUCGCCGUGGCCUUU [Geeseris]	0.136 µM
AAUUCAGUGAUGUUGGAAGGCAGGAGGGAUACCAGCGGAAAUAAACGCCCUUGGCAGCCCAAAUAUCCCAAAUAGAUAAUAAUUU [Same State - Theophylline A (Freestyle 1)]	0.563 µM
UUGUUUGGUUGAGAGGUUGGGCGAGAUGAUACCAGUAUAGUAUAGUACCCUUGGCAGCAUAGGAGAGAUAUAGUGAUGUUGUAUG [SSTheophA.V]	0.373 µM
AAAUAGAUCAGUCACCCAGUGAUGUUGGAAGGAGCGUGCGAAAGCACAGGUAGGUCGCCGAAAUAAAAUUGGCUGAUCAAAAUAA	0.104 µM
CCGGGCGGCCGAAGGAGCGGGCGGGCCCGAGUGAUGUUCGGGUGGACCGUGAGGUCCGGUGCCCAGGUAGGUCGCGGUUCCGCCC [#2 Same State - Arginine B Attempt #7 (HarryS)]	0.134 µM
UGACAUUGCUCAGAUACCAGACCUGAGGAUCACCCGGGUGCCAAAACGUACUAAAUAAAGGUCCCUUGGCAGCUGAGCAAUGUCU [TheoBX 13]	0.0895 µM
ACAUUAGCGAGUGAUGUUCGCUAAGACGAAGGAGCGCUCGCGAGAGCAGGUAGGUCGCGUCUAGUGUCACUGUACUAAAUAGUGA [Arg A SS t12]	0.169 µM
